The supplement of paper PMC10567573

B1: FAM189A2 (parent)
chain: PRCDLVDLGEGKICFCCEEFQPAK
B2: ESR2 (parent)
chain: KSCQACRLRKCYEVGMVKCGSRRE

Variants of: B1
Experiment: protein stability index of a GFP-peptide fusion (GPS, HEK-293T) (PSI 1-6); higher = more stable
Details: c terminus: a fixed tail appended
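Note: lentivirally expressed fusions sorted by FACS into six bins by GFP to DsRed ratio, PSI derived from sequencing read proportions per bin multiplied by bin number.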

Protein stability index, by site and new letter:
K24: D 3.18 | S 2.72 | Q 2.25 | T 3 | V 3.06 | C 3.39 | P 3.05 | E 3.81 | L 3.26 | M 2.32 | H 2.52 | G 3.1 | I 2.48 | F 2.23 | R 2.89 | A 2.66 | N 3.37 | W 1.99 | Y 2.52
I13: M 4.02 | S 3.57 | E 3.73 | Y 2.3 | F 3.02 | N 3.78 | A 3.01 | T 3.1 | H 3.89 | W 2.11 | L 2.72 | Q 3.27 | V 2.86 | D 4.28 | G 3.55 | R 3.44 | C 3.38 | P 3.41 | K 3.71
C17: T 4.05 | R 3.28 | Q 3.12 | W 2.51 | G 3.92 | E 4.67 | L 2.15 | I 2.05 | A 3.34 | Y 2.66 | M 2.66 | D 4.29 | F 2.37 | P 3.27 | K 3.64 | S 3.5 | N 3.96 | H 3.11
F15: Y 2.81 | V 3.43 | I 2.38 | H 3.77 | S 4.47 | Q 4.13 | M 2.8 | R 3.33 | W 3.04 | T 4.07 | E 4.19 | K 4.07 | P 3.55 | L 3.39 | C 3.86 | G 3.79 | N 4.66 | D 4.74 | A 3.94
E19: K 2.09 | L 2 | F 1.78 | A 2.51 | I 1.55 | P 3.04 | N 3.21 | W 2.25 | Q 3.05 | V 1.65 | T 3.13 | Y 2.03 | D 2.97 | H 2.94 | G 2.71 | C 3.96 | R 2.21 | S 2.26
F20: Q 2.59 | N 3.86 | E 4.91 | Y 3.1 | A 3.32 | H 4.34 | P 4 | R 4.13 | W 2.4 | M 3.16 | V 3.75 | L 2.42 | I 3.6 | C 3.15 | S 3.89 | G 3.59 | T 3.97 | D 4.05 | K 3.89
Q21: H 3.1 | D 3.61 | F 2.24 | N 3.14 | C 4.17 | M 2.24 | P 2.86 | K 2.79 | V 2.66 | S 2.65 | W 2.48 | I 2.68 | G 3.07 | Y 2.33 | R 2.44 | A 3.44 | E 3.87 | T 3.55 | L 2.65
C16: Y 2.22 | H 4.23 | M 3.07 | T 3.05 | G 3.44 | N 3.93 | A 3.45 | W 2.1 | E 3.64 | Q 3.89 | L 2.71 | V 2.85 | D 3.88 | P 4.24 | K 3.76 | F 2.66 | R 3.13 | I 2.09 | S 3.28
A23: W 3.56 | L 3.1 | C 3.98 | K 3.36 | N 3.15 | F 2.85 | G 2.72 | S 2.66 | D 3.12 | Q 3.5 | Y 2.28 | H 3.07 | I 2.65 | R 2.24 | V 3.29 | P 2.44 | M 1.96 | T 2.79 | E 4.35
E18: D 2.56 | F 2.29 | P 2.98 | R 2.28 | K 2.77 | H 2.85 | W 2.01 | Q 2.64 | T 2.45 | S 2.55 | C 2.62 | A 3.34 | G 2.64 | V 2.53 | N 2.78 | Y 2.07 | M 2.07 | L 1.71 | I 2.63
K12: T 2.63 | I 2.46 | Q 3.89 | H 4.16 | E 3.6 | G 2.21 | S 3.38 | L 2.42 | F 2.85 | P 3.25 | W 2.32 | V 2.35 | M 2.04 | Y 2.42 | R 1.99 | D 3.4 | N 2.7
P22: N 3.28 | L 2.74 | G 3.86 | Q 3.51 | M 3.07 | A 3.31 | E 3.49 | D 4.31 | F 3.12 | T 3.23 | R 2.51 | H 3.13 | V 2.69 | I 2.75 | W 3.08 | K 3.42 | C 3.51 | Y 3.06
C14: T 3.47 | L 3.15 | D 4.07 | A 3.62 | Q 3.79 | Y 2.46 | K 3.94 | E 4.24 | M 2.87 | P 3.94 | V 3.06 | S 3.3 | H 3.48 | I 2.39 | F 2.16 | W 2.51 | G 3.56 | N 4.56 | R 3.51

Variants of: B2
Experiment: as above
Details: c terminus: a fixed tail appended

Protein stability index: each site, then its substitutions
V17: A 2.41 | L 1.61 | E 1.89 | Q 2.1 | Y 1.78
C19: K 1.76 | V 1.89 | F 1.86 | H 1.94 | M 1.9 | E 2.43 | S 1.61
M16: V 1.74 | D 1.66
E13: L 1.64 | A 1.93 | G 2.3 | C 2.46
R22: H 1.97 | Y 1.66 | S 1.91 | I 1.83 | D 3.02
S2: N 1.98 | C 1.54
C3: F 2.2 | Y 2.19 | D 2.69
L8: E 2.47 | T 2.11 | I 1.64 | R 2.18 | K 2.66
S21: A 2.24 | F 1.5 | E 2.25 | P 2.29 | H 2.65
K18: I 1.49 | D 2.2 | F 1.51 | Y 1.49
E24: C 2.28 | M 1.67 | K 2.45
G15: M 1.96 | V 1.25
G20: M 1.73
Q4: H 1.83 | Y 1.9 | D 1.81 | C 1.72 | M 2.18 | A 1.55
R7: W 1.89 | S 1.89 | L 1.74 | F 2.29
R23: W 1.67 | P 2.2 | I 2.43 | N 2.17 | L 1.58 | Q 2.21 | M 1.98
K10: C 1.5 | P 1.94 | I 1.98 | T 2.23 | S 2.69
Y12: I 1 | T 2.77 | S 2.29
C6: I 2.6 | L 2.48
R9: H 1.92 | G 1.95 | C 1.61 | S 1.8 | D 1.75
K1: H 2.5 | A 2.89 | Q 2.42 | I 2.78 | N 1.59 | W 1.65
V14: Q 2.17 | R 2.27 | P 1.62
A5: I 2.34 | Q 2.11 | S 2
